Data taken from patent publication US20250064890A1, “PROTEIN COMPOSITIONS FOR THE TREATMENT OF INFLAMMATORY DISEASES” (Unichem Laboratories Limited, priority 2021, published 2025).
Where two headings read alike, the source gives them in different places.

Experiments:
Format in all cases: cell-based, human
[1] = tested on: oral (buccal) mucosa cells (TR146)
Protocol: The protective effect of the recombinant lectin on survival of TR146 cells against 5-FU induced damage was determined using following calculations:
The viability of cells was determined as: % Cell viability=(100−% Cytotoxicity); • where, the percentage cytotoxicity corresponding to each treatment was calculated as: % Cytotoxicity=[(R−X)/R]*100, wherein X=Absorbance of cells treated with 5-FU or radiation damage/TI+5-FU, R=Absorbance of Control cells (Untreated) and Percentage protection was calculated as:
{(Absorbance of TI+5-FU or radiation)−(Absorbance of 5-FU or radiation alone)/(Absorbance of Untreated)−(Absorbance of 5-FU alone)}*100

[2] = tested on: oral (buccal) mucosa cells (TR146); assay: Sub(G0/G1) cell population (cell cycle) against radiation induced damage; settings: for % Decrease in Apoptotic cells (with respect to control): Sub G0/G1
Protocol: To determine the effect of test item on cell cycle, oral buccal mucosal cells (TR146) were incubated overnight in 5% CO2 incubator at 37° C. for 24 h. […] After 24 h of treatment, cells were exposed to chemotherapy (5-FU 10 mM) for 24 h or radiotherapy (Gamma radiation (3.5 kGy) using Cobalt 60) for 2 h.
After incubation, cells were harvested by trypsinization and processed for Cell cycle assay. Accordingly, cells were harvested into prelabeled centrifuge tubes and centrifuged at 450 g for 5 min at room temperature (RT, low brake). The supernatants were removed carefully and discarded. 1 ml of 1× phosphate buffer saline (PBS) was added to the pellet and resuspended gently to make homogenous suspension. Cells were centrifuged at 450 g for 5 min, RT (low brake). The supernatant was carefully removed leaving behind approx. 100 μl of PBS. Cells were resuspended gently yet thoroughly in residual PBS. Ice-cold 70% ethanol (100 μl) was added drop-wise into cells in each tube while vortexing at low speed (fixation step). Cells stored at 4° C. for 24 h were centrifuged at 450 g for 5 min, RT (low brake). The supernatant was carefully removed without touching the pellet and discarded. 1 ml of 1×PBS was added into pellet and resuspended gently. Cells were incubated for 1 minute at RT. Cells were centrifuged at 450 g for 5 min, RT (low brake). The supernatant was removed carefully without touching the pellet, leaving behind approx. 20-50 μl of PBS. 200 μl of cell cycle reagent was added into each tube. Cells were resuspended gently and mixed. Cells were incubated for 30 min at RT in the dark. The stained samples were transferred into 96-well plates and acquired on flow cytometer (Guava technologies). Percentage of cells in Sub (G0/G1) phase were determined based on the concept that cell cycle reagent contains PI stain, which stains DNA of cells in different phases of cell cycle; Sub (G0/G1), G1, S, G2 and M. Cells in Sub (G0/G1) phase correspond to apoptotic cells. Percent inhibition in apoptotic cells is determined by the formula:
=[(% Sub(G0/G1) cells in 5-FU/radiation alone)−(% Sub(G0/G1) cells in TI+5-FU/radiation)/% Sub(G0/G1) cells in 5-FU/radiation alone]*100

[3] = tested on: oral (buccal) mucosa cells (TR146); assay: Annexin positive cell population against radiation damage; settings: for % Apoptotic cells: Annexin positive
Protocol: (§1) Oral buccal mucosal cells (TR146) were incubated overnight in 5% CO2 incubator at 37° C. for 24 h. […] After 24 h of treatment, cells were exposed to damage (5-FU 5 mM) for 1.25 h for chemotherapy induced inflammation and exposed to gamma radiation (3.5 kGy) using Cobalt 60 for radiation induced inflammation. After the exposure, the anti-apoptotic effect of SEQ ID NO 2 was determined by restoration of mitochondrial membrane depolarization by JC-1 staining and reduction in apoptotic cell populations (Annexin positive and subG0/G1 cells in cell cycle analysis).
To determine the reduction in apoptotic cell populations using annexin-v staining cells were gently harvested into pre-labeled sterile centrifuge tubes and centrifuged at 300×g for 5-7 min. Supernatant were discarded and the pellet was resuspended in 200 μl of fresh culture medium. 100 μl of cell suspension was transferred into pre-labeled sterile centrifuge tubes. 100 μl of Annexin-V reagent was added to each tube and incubated for 30 min at RT in dark. Cells stained for Annexin-V were then transferred into 96-well plates and acquired on flow cytometer (Guava technologies). Percentage of Annexin-V positive cells was calculated as follows:
={[% Annexin positive cells in 5-FU or radiation alone]−[% Annexin positive cells in (TI+5-FU) or (TI+radiation)]/% Annexin positive cells in 5-FU or radiation alone}*100

[4] = tested on: oral (buccal) mucosa cells (TR146); assay: Restoration of mitochondrial membrane potential (JC-1) against radiation induced damage; settings: for MMP: red/green JC-1 fluorescence ratio
Protocol: as §1
After incubation, the supernatants were discarded and 100 μl of JC1-dye solution (prepared by diluting 1 mM DMSO stock into 10 μM in 1×PBS) was added to each well. The cells were then incubated with the dye in CO2 incubator at 37° C. for 15 min, after which the supernatant was removed, and the cells were washed twice with 1×PBS. 100 μl of 1×PBS was finally added to each well. Red fluorescence (excitation 550 nm, emission 600 nm) and green fluorescence (excitation 485 nm, emission 535 nm) were measured using Biotek Synergy HT plate reader. The mitochondrial membrane potential (Δψm) was calculated as the ratio of intensity of red fluorescence to intensity of green fluorescence.
The percentage increase/restoration in mitochondrial membrane potential (MMP) was calculated as: % Increase=[(R−X)/R]*100 • Where, X=Δψm corresponding to TI+5-FU treated cells or TI+radiation treated cells; R=Δψm corresponding to control cells (FU damaged or Radiation damaged alone)

[5] = 100 ng/ml + Radiation (3.5 kGy)
[6] = 200 ng/ml + Radiation (3.5 kGy)

B1: EGF: positive control (PC-1 in Tables 4, 6, 8) in the radiation damage tests (protein, UniProt P01133 23-1207, looked up)
Pro-epidermal growth factor: PQHWSCPEGTLAGNGNSTCVGPAPFLIFSHGNSIFRIDTEGTNYEQLVVDAGVSVIMDFHYNEKRIYWVDLERQLLQRVFLNGSRQERVCNIEKNVSGMAINWINEEVIWSNQQEGIITVTDMKGNNSHILLSALKYPANVAVDPVERFIFWSSEVAGSLYRADLDGVGVKALLETSEKITAVSLDVLDKRLFWIQYNREGSNSLICSCDYDGGSVHISKHPTQHNLFAMSLFGDRIFYSTWKMKTIWIANKHTGKDMVRINLHSSFVPLGELKVVHPLAQPKAEDDTWEPEQKLCKLRKGNCSSTVCGQDLQSHLCMCAEGYALSRDRKYCEDVNECAFWNHGCTLGCKNTPGSYYCTCPVGFVLLPDGKRCHQLVSCPRNVSECSHDCVLTSEGPLCFCPEGSVLERDGKTCSGCSSPDNGGCSQLCVPLSPVSWECDCFPGYDLQLDEKSCAASGPQPFLLFANSQDIRHMHFDGTDYGTLLSQQMGMVYALDHDPVENKIYFAHTALKWIERANMDGSQRERLIEEGVDVPEGLAVDWIGRRFYWTDRGKSLIGRSDLNGKRSKIITKENISQPRGIAVHPMAKRLFWTDTGINPRIESSSLQGLGRLVIASSDLIWPSGITIDFLTDKLYWCDAKQSVIEMANLDGSKRRRLTQNDVGHPFAVAVFEDYVWFSDWAMPSVMRVNKRTGKDRVRLQGSMLKPSSLVVVHPLAKPGADPCLYQNGGCEHICKKRLGTAWCSCREGFMKASDGKTCLALDGHQLLAGGEVDLKNQVTPLDILSKTRVSEDNITESQHMLVAEIMVSDQDDCAPVGCSMYARCISEGEDATCQCLKGFAGDGKLCSDIDECEMGVPVCPPASSKCINTEGGYVCRCSEGYQGDGIHCLDIDECQLGEHSCGENASCTNTEGGYTCMCAGRLSEPGLICPDSTPPPHLREDDHHYSVRNSDSECPLSHDGYCLHDGVCMYIEALDKYACNCVVGYIGERCQYRDLKWWELRHAGHGQQQKVIVVAVCVVVLVMLLLLSLWGAHYYRTQKLLSKNPKNPYEESSRDVRSRRPADTEDGMSSCPQPWFVVIKEHQDLKNGGQPVAGEDGQAADGSMQPTSWRQEPQLCGMGTEQGCWIPVSSDKGSCPQVMERSFHMPSYGTQTLEGGVEKPHSLLSANPLWQQRALDPPHQMELTQ
modifications: Pro-epidermal growth factor
% Protection ([1]; 10 ng/ml + Radiation (3.5 kGy)): 18%
% Protection ([1]; 50 ng/ml + Radiation (3.5 kGy)): 44.4%
% Protection [1, 5]: 46.5%
% Protection [1, 6]: 8.8%
% Apoptotic cells (Sub G0/G1) ([2]; 50 ng/ml + Radiation (3.5 kGy)): 10.8%
% Decrease in Apoptotic cells (with respect to control) ([2]; 50 ng/ml + Radiation (3.5 kGy)): 69.5%
% Apoptotic cells (Sub G0/G1) [2, 5]: 16.4%
% Decrease in Apoptotic cells (with respect to control) [2, 5]: 53.5%
% Apoptotic cells (Sub G0/G1) [2, 6]: 30.5%
% Decrease in Apoptotic cells (with respect to control) [2, 6]: 13.7%
% Decrease in Apoptotic cells (with respect to radiation control) ([3]; 50 ng/ml + Radiation (3.5 kGy)): 0%
% Apoptotic cells ([3]; 50 ng/ml + Radiation (3.5 kGy)): 13.7%
% Decrease in Apoptotic cells (with respect to radiation control) [3, 5]: 35.9%
% Apoptotic cells [3, 5]: 8.8%
% Decrease in Apoptotic cells (with respect to radiation control) [3, 6]: −1.5%
% Apoptotic cells [3, 6]: 13.9%
% Increase in MMP (with respect to control) ([4]; 50 ng/ml + Radiation (3.5 kGy)): 41.8%
MMP ([4]; 50 ng/ml + Radiation (3.5 kGy)): 6.53
% Increase in MMP (with respect to control) [4, 5]: 33.4%
MMP [4, 5]: 6.14
% Increase in MMP (with respect to control) [4, 6]: 18.8%
MMP [4, 6]: 5.47
